{"source": "patent US20250242021A1", "about": "(published 2025)", "key": {"[1]": {"biological_target": "T1, minor histocompatibility antigen (miHA) HA-1, 'H' epitope peptide on HLA-A*02:01 (human)", "T1 peptide": "VLHDDLLEA", "experiment": "killing"}, "[2]": {"biological_target": "T2, minor histocompatibility antigen (miHA) HA-1, 'R' epitope (non-target allelic variant) peptide on HLA-A*02:01 (human)", "T2 peptide": "VLRDDLLEA", "experiment": "killing"}, "[3]": {"biological_target": "T3, minor histocompatibility antigen (miHA) HA-1, 'H' epitope peptide on HLA-A*02:06 (human)", "T3 peptide": "VLHDDLLEA", "experiment": "activation reporter or marker"}}}
{"binder": "anti-HA-1 'H' epitope TCR (TCR, V domains shown) Valpha: AQSVAQPEDQVNVAEGNPLTVKCTYSVSGNPYLFWYVQYPNRGLQFLLKYITGDNLVKGSYGFEAEFNKSQTSFHLKKPSALVSDSALYFCAVRAPTSGTYKYIFGTGTRLKVLA Vbeta: DTGVSQDPRHKITKRGQNVTFRCDPISEHNRLYWYRQTLGQGPEFLTYFQNEAQLEKSRLLSDRFSAERPKGSFSTLEIQRTEQGDSAMYLCASSLVSGNEQFFGPGTRLTVL", "values": [{"measurement": "binding result", "setting": "[1]", "value": "recognises"}, {"measurement": "binding result", "setting": "[2]", "value": "no recognition"}, {"measurement": "binding result", "setting": "[3]", "value": "recognises"}]}
